Target: T1, FLAG-IFNAR2 (human, UniProt P48551 27-515)
T1 sequence: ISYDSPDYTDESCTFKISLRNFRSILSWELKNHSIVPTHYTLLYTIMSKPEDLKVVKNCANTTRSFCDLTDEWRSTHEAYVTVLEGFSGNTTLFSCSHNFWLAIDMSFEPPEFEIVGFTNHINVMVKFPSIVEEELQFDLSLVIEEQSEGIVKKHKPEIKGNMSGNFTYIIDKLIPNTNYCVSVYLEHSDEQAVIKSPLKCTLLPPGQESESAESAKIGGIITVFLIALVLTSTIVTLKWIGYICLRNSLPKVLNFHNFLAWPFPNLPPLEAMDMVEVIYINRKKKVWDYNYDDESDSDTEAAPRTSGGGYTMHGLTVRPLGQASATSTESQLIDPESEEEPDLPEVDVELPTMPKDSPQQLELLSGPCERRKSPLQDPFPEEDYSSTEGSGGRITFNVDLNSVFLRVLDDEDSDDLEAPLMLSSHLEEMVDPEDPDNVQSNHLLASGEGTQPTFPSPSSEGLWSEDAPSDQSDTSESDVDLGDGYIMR
Test: co-IP

B1: USP18 (no tag named), expressed in U6A cells (enzyme)
chain: MSKAFGLLRQICQSILAESSQSPADLEEKKEEDSNMKREQPRERPRAWDYPHGLVGLHNIGQTCCLNSLIQVFVMNVDFTRILKRITVPRGADEQRRSVPFQMLLLLEKMQDSRQKAVRPLELAYCLQKCNVPLFVQHDAAQLYLKLWNLIKDQITDVHLVERLQALYTIRVKDSLICVDCAMESSRNSSMLTLPLSLFDVDSKPLKTLEDALHCFFQPRELSSKSKCFCENCGKKTRGKQVLKLTHLPQTLTIHLMRFSIRNSQTRKICHSLYFPQSLDFSQILPMKRESCDAEEQSGGQYELFAVIAHVGMADSGHYCVYIRNAVDGKWFCFNDSNICLVSWEDIQCTYGNPNYHWQETAYLLVYMKMEC
  fold enhancement of the co-precipitation upon expression of STAT2: ≤ 10 fold
